Experimental data: patent publication US12692533B2, “Methods and compositions for noninvasive detection of organ transplant rejection” (Georgia Tech Research Corporation, priority 2016, dated 2026)
Square brackets hold non-standard residues; d marks the D form. Ends that are not written are not given here.

Columns and labels:
murine Granzyme B = target: T1, murine Granzyme B (Mus musculus, UniProt P04187); test: In vitro protease cleavage assay with recombinant GzmB; format: biochemical; details: substrate conjugated to IONPs, library of 13 candidate substrates
T1 construct: purchased Peprotech
T1 sequence (P04187 21-247): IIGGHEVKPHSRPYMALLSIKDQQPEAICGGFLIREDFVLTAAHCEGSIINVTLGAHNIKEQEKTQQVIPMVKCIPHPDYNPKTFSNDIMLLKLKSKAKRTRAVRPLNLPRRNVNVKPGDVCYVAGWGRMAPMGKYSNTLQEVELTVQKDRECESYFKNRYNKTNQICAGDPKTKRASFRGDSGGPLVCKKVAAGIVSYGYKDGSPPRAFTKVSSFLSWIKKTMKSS
Experimental: (§1) Synthetic biomarkers (6 nM by NP, 300 nM by peptide) were incubated in PBS+1% bovine serum albumin (BSA; Sigma) at 37° C. with murine Granzyme B (0.2 μM, Peprotech), human thrombin (HaemTech), mouse thrombin (HaemTech), mouse plasmin (HaemTech), Clr (Sigma), Cls (Sigma), Factor D (Sigma), Factor I (Sigma), MASP2 (Biomatik). Sample fluorescence were measured for 60 minutes using Cytation 5 plate reader (Biotek). To optimize GzmB substrate, a library of potential substrates was synthesized by Tufts University Core Facility peptide synthesis service and conjugated to IONPs. Cleavage assays of nanoparticles decorated with these substrates with recombinant GzmB were performed, and data was fitted to compare initial cleavage velocities. To determine Michaelis-Menten constants, cleavage assays with GzmB were performed at different substrate concentrations. To initiate coagulation cascade, citrated plasma was mixed with synthetic biomarkers before addition of calcium chloride (15 mM, Sigma). To initiate complement activation, Control Human Serum (Sigma) was mixed with synthetic biomarkers before addition of Heat Aggregated Gamma Globulin (HAGG; Quidel) per the manufacturer's protocol. After measuring fluorescence for 1 hour, supernatants were collected and measured for formation of MAC complex using Micro Vue CH50 Eq EIA Kit (Quidel).

[1] = test system: proteases in the coagulation and complement cascades; test: Specificity: cleavage by key recombinant proteases and activated coagulation and complement cascades; format: biochemical; details: recombinant proteases; plasma + Ca2+; serum + HAGG; fluorescence
Experimental: as §1

[2] = test system: membrane attack complex (MAC); format: biochemical, Human
Experimental: as §1

[3] = test system: T cells from skin graft mice with BALB/c donor splenocytes; test: NP assay sensing alloreactive T cell killing (coculture supernatants); format: cell-based, mouse; details: cocultures containing T cells from mice bearing allografts
Experimental: (§3) To sense transgenic T cell killing, CD8+OT1 T cells were isolated and activated per above protocol. On day 5 post activation, 1x10^6 OT1 T cells were coincubated with 1x10^6 EL4 or EG7-OVA target cells for 2 hours at 37° C. Coculture supernatants were mixed with synthetic biomarkers (2 nM by NP, 100 nM by peptides) and fluorescence were monitored for 1 hour at 37° C. To sense alloreactive T cell killing, on day 7 post-transplant, CD8 T cells were isolated from splenocytes and lymphocytes of skin graft mice. 5×10^5 CD8 T cells from skin graft mice were restimulated with 5×10^5 splenocytes from BALB/c Mice (Charles River) for 6 hours at 37° C. Coculture supernatants were mixed with synthetic biomarkers (2 nM by NP, 100 nM by peptides) and fluorescence were monitored for 2 hours at 37° C.

GzmB [4] = target: T2, GzmB (Mus musculus, UniProt P04187); test: Tracking in vivo GzmB cleavage by near infra-red imaging in skin graft mice
T2 construct: cleaved by GzmB secreted by alloreactive T cells; endogenous in cells; host or cells: alloreactive CD8 T cells of C57BL/6 recipient mice bearing BALB/c skin grafts
T2 sequence (P04187 21-247): T1 sequence (P04187 21-247)
Experimental: (§2) To track cleaved fragments after in vivo GzmB cleavage, on day 7 post-transplant, VT750-labelled synthetic biomarkers (10 nmol by peptides) were administered to skin graft mice. Major organs were excised and imaged with Odyssey CLx Imaging System (LI-COR) while mouse bladders were imaged with IVIS Spectrum CT Imaging System (PerkinElmer) after 90 minutes. All urinalysis experiments were done in paired setup. 4 days before and 7 days after surgeries, skin graft mice were administered with FITC-labelled Synthetic biomarkers (10 nmol by peptides). Urine were collected after 90 minutes by placing mice over 96-well plates. FITC in urine was purified by a magnetic separation assay using Dynabeads (Thermo, 65501) coated with anti-FITC (GeneTex, GTX10257). Fluorescent signals were measured with Cytation 5 Plate Reader (Biotek). Concentrations of FITC were calculated using a free FITC ladder and normalized with urine volume. For CD8 depletion study, mice were given anti-mouse CD8 (clone: 53-6.7, BioXCell) for 3 consecutive days following with booster shots every 3 days after. Flow cytometry analysis of splenocytes and lymphocytes were performed with anti-mouse CD3 (clone: 17A2, Biolegend), anti-mouse CD4 (clone: RM4-5, Biolegend), anti-mouse CD8 (clone: KT15, Serotec) to confirm success of depletion.

GzmB [5] = target: T2, GzmB; test: Urinary prediction of acute cellular rejection in skin graft mouse model; format: in vivo, mice
Experimental: as §2

[6] = in plasma, DLS
Text: DLS measurements of synthetic biomarkers were done in PBS or mouse plasma at RT using Zetasizer Nano ZS (Malvern).

[7] = test system: OT1 T cells killing EG7-OVA target cells
Experimental: as §3

[8] = in vivo

## AIEFDSGc (AIEFDSG[dC])
Murine Granzyme B
  rate of cleavage by recombinant GzmB: high rate of cleavage
Murine Granzyme B; listed as AIEFD|SGc
  rate of cleavage by recombinant GzmB: highest rate of cleavage

## synthetic biomarkers: PEG-coated iron oxide nanoparticles conjugated with GzmB peptide substrates carrying a fluorescent reporter (AIEFDSG[dC]; not fully specified; printed as AIEFDSGc; also: conjugated to PEG-coated iron oxide nanoparticle via Cys thiol and SIA, FITC reporter, position not given here)
[1]
  activation by proteases in the coagulation and complement cascades: not activated
[2]
  formation of membrane attack complex (MAC): not detected
[3]
  activation kinetics: Increased activation kinetics
GzmB [4]; allograft vs isograft mice
  full body imaging bladder fluorescent signals: only detected fluorescent signals from the bladders of allograft mice
GzmB [4]; day 7 post-transplant
  GzmB activity (fluorescent signal) in kidney, allograft mice with respect to isograft mice: 3 fold
GzmB [5]; accepting isografts vs rejecting allografts
  ROC area under the curve (AUC): 0.969
GzmB [5]; allograft mice, day 7 vs day -4
  post-graft urine signals compared to pre-graft signals: more than 2 fold
GzmB [5]; naïve mice, isograft mice, allograft mice depleted of CD8 T cells
  post-graft urine signals with respect to pre-graft signals: did not detect significant elevation
[6]
  Z-average: 47 nm
[7]
  sensing of cytotoxic signal (fluorescence): amplified cytotoxic signal
[7]; coculture supernatant
  correlation of initial velocity of probe activation with secretory GzmB: strongly correlated
[8]
  tolerability: well tolerated
